{"source": "paper PMC3074150", "key": {"[1]": {"target": "δ2K242A (Streptococcus pyogenes plasmid pSM19035)"}, "[2]": {"target": "δ2K248S (Streptococcus pyogenes plasmid pSM19035)"}, "[3]": {"target": "δ2K259A/K260A (Streptococcus pyogenes plasmid pSM19035)"}}}
{"substance": "δ2K242A (enzyme)", "values": [{"measurement": "stoichiometry N", "setting": "[1]", "value": 2}]}
{"substance": "δ2K248S (enzyme)", "values": [{"measurement": "stoichiometry N", "setting": "[2]", "value": 2}]}
{"substance": "δ2K259A/K260A (enzyme)", "values": [{"measurement": "stoichiometry N", "setting": "[3]", "value": 2}]}
